Measurements: patent US10781456B2, “Carbon-neutral and carbon-positive photorespiration bypass routes supporting higher photosynthetic rate and yield” (Max-Planck-Gesellschaft zur Förderung der Wissenschaften …, priority 2015, dated 2020)
Where two headings read alike, the source gives them in different places.

What was measured:
[1] = target: D-fructose 6-phosphate aldolase encoded by E. coli gene fsaB (UniProt P32669); conditions: cited from earlier work
[2] = target: D-fructose 6-phosphate aldolase encoded by E. coli gene fsaA (UniProt P78055); conditions: cited from earlier work
[3] = substrate: CC(C)(COP(=O)(O)OP(=O)(O)OC[C@H]1O[C@@H](n2cnc3c(N)ncnc32)[C@H](O)[C@@H]1OP(=O)(O)O)[C@@H](O)C(=O)NCCC(=O)NCCSC(=O)CO; assay: PCCMe_D407I_Y143H activity for conversion of glycolyl-CoA into tartronyl-CoA (reaction 3#), coupled ATP hydrolysis (PK/LDH) assay; type: biochemical, Methylobacterium extorquens; conditions: other: 37° C., pH 7.7, ATP hydrolysis assay, 0.125-3 mM glycolyl-CoA, n=2
malonyl-CoA = malonyl-CoA reductase activity with physiological substrate malonyl-CoA; type: biochemical
Procedure: (§1) The kinetics of the MCRCa enzyme for enzymatically converting the substrate tartonyl-CoA into glycerate (via reactions 4# and 5 both catalyzed by MCRCa) were determined spectrophotometrically at 365 nm following the oxidation of NADPH. Per molecule tartronyl-CoA, two molecules of NADPH are oxidized by MCRCa (a first in reaction 4# and a second in reaction 5) The measurements were carried out at 37° C. in a total reaction volume of 200 μL containing 100 mM MOPS buffer (with 5 mM MgCl2, pH 7.5) with an initial NADPH concentration of 0.4 mM NADPH and 23 μg MCRCa.
(0.3 mM substrate, Kröger et al. 2011, loc. cit.). With tartronyl-CoA (0.25 mM), the specific activity at 37° C. was 0.6 U mg^−1.
(§2) An alternative enzyme for catalyzing the conversion of tartonyl-CoA into glycerate (via reactions 4# and 5) is the MCR from Erythrobacter sp. NAP1 (MCRE). It was tested for its activity with malonyl-CoA and for tartronyl-CoA with the assay described above for MCRCa.

tartronyl-CoA = assay: malonyl-CoA reductase spectrophotometric assay, NADPH oxidation at 365 nm, tartronyl-CoA into glycerate (reactions 4# and 5); type: biochemical; conditions: 0.25 mM tartronyl-CoA
Procedure: as §1, §2

[4] = substrate: CC(C)(COP(=O)(O)OP(=O)(O)OC[C@H]1O[C@@H](n2cnc3c(N)ncnc32)[C@H](O)[C@@H]1OP(=O)(O)O)[C@@H](O)C(=O)NCCC(=O)NCCSC(=O)C(O)C(=O)O; assay: MCRCa activity for conversion of tartronyl-CoA into glycerate (reactions 4# and 5), NADPH oxidation; type: biochemical, Chloroflexus aurantiacus; conditions: pH 7.5, 0.4 mM NADPH
Procedure: For the heterologous expression of the MCRCa protein (amino acid sequence is shown in SEQ ID NO: 8; corresponding nucleic acid sequence encoding the protein is depicted in SEQ ID NO: 7) the previously described pTRC-MCRCa plasmid (Kröger et al., 2011, Analytical biochemistry, 411(1), 100-105) was employed.
Cells were harvested at 10 000×g for 10 min and cell pellets were stored at −80° C. until purification of enzymes. Cell pellets of MCRCa and MCRE overexpressing cells were resuspended in two-fold volume of buffer AStrep (50 mM Tris/HCl, 150 mM NaCl, pH 7.8) containing 0.1 mg mL^−1 DNAse I. The cell suspension was passed through a French pressure cell twice at a pressure of 137 MPa and centrifuged at 100 000×g and 4° C. for 1 h. The supernatant was filtered through a 0.45 μm syringe filter and loaded at a flow rate of 1 mL min^−1 onto a 1 mL StrepTrap™ HP column (GE healthcare) which had previously been equilibrated with 5 column volumes of buffer AStrep. The column was washed with 20 column volumes of buffer AStrep and the protein was eluted with buffer AStrep containing 3 mM desthiobiotin. The enzyme was stored in buffer AStrep containing 20% glycerol.
as §1

[5] = bound stated for both fsaA and fsaB enzymes, read-out: KM (condensation of glycolaldehyde as donor with D-glyceraldehyde 3-phosphate as acceptor)
[6] = as a substrate, read-out: KM for D-fructose 6-phosphate
[7] = as a substrate, read-out: KM for dihydroxyacetone phosphate
[8] = other: 37° C., n=3, nonlinear regression
[9] = other: FIG. 8D and Table 5, 37° C., n=3

For `O=C[C@H](O)COP(=O)(O)O` [D-glyceraldehyde 3-phosphate], the Km [1, 5] is given as < 1000 µM and the Km [2, 5] is given as < 1000 µM.

In the case of `O=P(O)(O)OC[C@H]1OC(O)[C@@H](O)[C@@H]1O` (stereo partly drawn) [D-arabinose 5-phosphate], the Km ([2]; read-out: KM for D-arabinose 5-phosphate) is given as ~500 µM.

In the case of `O=P(O)(O)OC[C@H]1OC(O)(CO)[C@@H](O)[C@@H]1O` (stereo partly drawn) [D-fructose 6-phosphate], the Km [1, 6] is listed as > 6000 µM and the Km [2, 6] is listed as > 6000 µM.

In the case of `O=C(CO)COP(=O)(O)O` [dihydroxyacetone phosphate], the Km [1, 7] is given as > 25000 µM and the Km [2, 7] is given as > 25000 µM.

B1: propionyl-CoA carboxylase from Methylobacterium extorquens (PCCMe) variant PCCMe_D407I_Y143H (pccA SEQ ID NO: 2; pccB_D407I_Y143H SEQ ID NO: 6) (Methylorubrum … (protein)
chain 1: MKDILEKLEERRAQARLGGGEKRLEAQHKRGKLTARERIELLLDHGSFEEFDMFVQHRSTDFGMEKQKIPGDGVVTGWGTVNGRTVFLFSKDFTVFGGSLSEAHAAKIVKVQDMALKMRAPIIGIFDAGGARIQEGVAALGGHGEVFRRNVAASGVIPQISVIMGPCAGGDVYSPAMTDFIFMVRDTSYMFVTGPDVVKTVTNEVVTAEELGGAKVHTSKSSIADGSFENDVEAILQIRRLLDFLPANNIEGVPEIESFDDVNRLDKSLDTLIPDNPNKPYDMGELIRRVVDEGDFFEIQAAYARNIITGFGRVEGRTVGFVANQPLVLAGVLDSDASRKAARFVRFCNAFSIPIVTFVDVPGFLPGTAQEYGGLIKHGAKLLFAYSQATVPLVTIITRKAFGGAYIVMASKHVGADLNYAWPTAQIAVMGAKGAVEIIFRAEIGDADKIAERTKEYEDRFLSPFVAAERGYIDEVIMPHSTRKRIARALGMLRTKEMEQPWKKHDNIPL
chain 2: MFDKILIANRGEIACRIIKTAQKMGIKTVAVYSDADRDAVHVAMADEAVHIGPAPAAQSYLLIEKIIDACKQTGAQAVHPGYGFLSERESFPKALAEAGIVFIGPNPGAIAAMGDKIESKKAAAAAEVSTVPGFLGVIESPEHAVTIADEIGYPVMIKASAGGGGKGMRIAESADEVAEGFARAKSEASSSFGDDRVFVEKFITDPRHIEIQVIGDKHGNVIYLGERECSIQRRNQKVIEEAPSPLLDEETRRKMGEQAVALAKAVNYDSAGTVEFVAGQDKSFYFLEMNTRLQVEHPVTEMITGLDLVELMIRVAAGEKLPLSQDQVKLDGWAVESRVYAEDPTRNFLPSIGRLTTYQPPEEGPLGGAIVRNDTGVEEGGEIAIHYDPMIAKLVTWAPTRLEAIEAQATALDAFAIEGIRHNIPFLATLMAHPRWRDGRLSTGFIKEEFPEGFIAPEPEGPVAHRLAAVAAAIDHKLNIRKRGISGQMRDPSLLTFQRERVVVLSGQRFNVTVDPDGDDLLVTFDDGTTAPVRSAWRPGAPVWSGTVGDQSVAIQVRPLLNGVFLQHAGAAAEARVFTRREAELADLMPVKENAGSGKQLLCPMPGLVKQIMVSEGQEVKNGEPLAIVEAMKMENVLRAERDGTISKIAAKEGDSLAVDAVILEFA
In the case of B1, the Km [3] is reported as 1.0 ± 0.15 mM (glycolyl-CoA) mM and the Vmax [3] is reported as 1.5 ± 0.09 U mg^−1.

B2: MCRE: malonyl-CoA reductase of Erythrobacter sp. NAP1, NCBI accession no. WP_007163680.1, SEQ ID NO: 10 (protein, listed as Erythrobacter sp.)
chain: MSKEGNAAKGRLEGKVALITGAAGNLGNEISRAFAREGAFVVMTGRTEERISAAREQLIADTGVAPERIDTAVLDGGNPDSIRAAMAKLRKEYGRIDILINNAGSAGPKQPLHNVPLSPQEMEACGDTETVRDAMLNILGVTWNMARIVAPMMPVGGAMVNISTIFSHTRYYGRTAYVVPKAALNALSNQLASELGPRGIRVNTVFPGPIESDRIRTVFAAMDEVQSQPKDTTANYFTGRMALTRSVNGKVDGKPLPNPKDIAGTCLFLASEEAAGIAGEEVDVTHGLSANRTSASTYMTRPSMRSLDGAGLNIFIVSGENWDDALVAAHTLIGSGAKVRLGLARNADVAQANARLKAQGIGEELTVTRFNRAEPDAMEDALAAFSGDVDGAITGAIILPVKPSGHFTGSLLAADDDTVTKFMDTELVGAIAVSRSLARYWHGREDLQSPPRCVFMTNPGDPLGNSFASVLSAGITQLIRIWRDEERVQAGNGSTEHAVWSNQIVRHTNTEDENTRFASGHATRVLFREQHIAEIDLKLPANISEETGSRKAMVGFAENITGLHLGKVAFITGGSAGIGGQVARLLALAGAKVMMVARRESELVAARDRIVGELQDIGFAGVERRVKYMADIDVSDFASLDKAVDATLEEFGRIDYLINNAGVAGAEDMVIDMEPEAWRFTLDANLISNYHLMQRVVPLMKEQGSGYVLNVSSYFGGEKFLAVAYPNRADYGLSKAGQRAMVEAFSPFLGPEVQCNAIAPGPVDGDRLSGTGGKPGLFQRRAKLILENKRLNAVYSAVIHAIREGGDAAKILTRLSRNSTSTLSHDAEAPEELRKLALDFASQGDGLCTWDQYLLTDAMAQRLLVRLQLGGFLLGSNEWASLSSSEQTWLKLSPPDDKPFLPAAQVDKVANGVGKGVISQLHLGAMPTEAEVAQATVFFLADRAVSGETFMPSGGLRVERSNTEREMFGSPKQERIDKMKGKTVWIIGEHLSDYVAATIEELVSGCGVAKVVLIAKDKSGEKAVRDQLPNDLSKDALEVLIAGDGLEEAMDEALGHWGKPTTVLSMPGEPLPDHLFEGGNPLSTKDFAHMVEANITRHYRVTRKASLYDGCQVVLVSPDVPYGSDGPGVALANFVKTSLHAFTATVAVENERLVHDVPVNQINLTRRVSSEEPRDADEHAEELRRFTRAVLLVGAPLPDAQDSRYRSKIYRGTSMTV
modifications: [CDS]1..3654 from SEQ ID NO 9
With B2 the “specific activity for malonyl-CoA, times lower than MCRCa” value (malonyl-CoA) was 100 times, the “specific activity with malonyl-CoA” value (malonyl-CoA; 0.25 mM malonyl-CoA) was 0.1 U mg^−1 and the “specific activity for tartronyl-CoA, times lower than that of MCRCa” value (tartronyl-CoA) was 6 times. The “specific activity with tartronyl-CoA” value (tartronyl-CoA; 37° C.) was 0.1 U mg^−1.

B3: malonyl-CoA reductase from Chloroflexus aurantiacus (MCRCa), SEQ ID NO: 8 (Chloroflexus aurantiacus) (protein)
chain: MSGTGRLAGKIALITGGAGNIGSELTRRFLAEGATVIISGRNRAKLTALAERMQAEAGVPAKRIDLEVMDGSDPVAVRAGIEAIVARHGQIDILVNNAGSAGAQRRLAEIPLTEAELGPGAEETLHASIANLLGMGWHLMRIAAPHMPVGSAVINVSTIFSRAEYYGRIPYVTPKAALNALSQLAARELGARGIRVNTIFPGPIESDRIRTVFQRMDQLKGRPEGDTAHHFLNTMRLCRANDQGALERRFPSVGDVADAAVFLASAESAALSGETIEVTHGMELPACSETSLLARTDLRTIDASGRTTLICAGDQIEEVMALTGMLRTCGSEVIIGFRSAAALAQFEQAVNESRRLAGADFTPPIALPLDPRDPATIDAVFDWGAGENTGGIHAAVILPATSHEPAPCVIEVDDERVLNFLADEITGTIVIASRLARYWQSQRLTPGARARGPRVIFLSNGADQNGNVYGRIQSAAIGQLIRVWRHEAELDYQRASAAGDHVLPPVWANQIVRFANRSLEGLEFACAWTAQLLHSQRHINEITLNIPANISATTGARSASVGWAESLIGLHLGKVALITGGSAGIGGQIGRLLALSGARVMLAARDRHKLEQMQAMIQSELAEVGYTDVEDRVHIAPGCDVSSEAQLADLVERTLSAFGTVDYLINNAGIAGVEEMVIDMPVEGWRHTLFANLISNYSLMRKLAPLMKKQGSGYILNVSSYFGGEKDAAIPYPNRADYAVSKAGQRAMAEVFARFLGPEIQINAIAPGPVEGDRLRGTGERPGLFARRARLILENKRLNELHAALIAAARTDERSMHELVELLLPNDVAALEQNPAAPTALRELARRFRSEGDPAASSSSALLNRSIAAKLLARLHNGGYVLPADIFANLPNPPDPFFTRAQIDREARKVRDGIMGMLYLQRMPTEFDVAMATVYYLADRNVSGETFHPSGGLRYERTPTGGELFGLPSPERLAELVGSTVYLIGEHLTEHLNLLARAYLERYGARQVVMIVETETGAETMRRLLHDHVEAGRLMTIVAGDQIEAAIDQAITRYGRPGPVVCTPFRPLPTVPLVGRKDSDWSTVLSEAEFAELCEHQLTHHFRVARKIALSDGASLALVTPETTATSTTEQFALANFIKTTLHAFTATIGVESERTAQRILINQVDLTRRARAEEPRDPHERQQELERFIEAVLLVTAPLPPEADTRYAGRIHRGRAITV
For B3, the Km [4, 8] was 25.7 ± 2.6 µM, the Vmax [4, 8] was 635±14 mU/mg and the Km [4, 9] was 0.03 ± 0.003 mM (tartronyl-CoA) mM. The Vmax [4, 9] was 0.6 ± 0.01 U mg^−1.
